The results in this text go back to patent publication US20100125055A1 (Dana-Farber, published 2010).

Where no end group is shown, it is not given here.

To fix the notation:
B1: MUC1/CQC peptide (peptide)
peptide: CQCRRKNYGQLDIFP
modifications: cysteine pairing not given here; also: poly-D-Arg transduction domain, length and attachment end not given here
notes: Synthetic peptide (MIT Biopolymer Laboratory); also called CQC long (15-mer); not shown: The poly-D-Arg cell transduction domain
B2: His-tagged MUC1 cytoplasmic domain (other)
chain: CQCRRKNYGQLDIFPARDTYHPMSEYPTYHTHGRYVPPSSTDRSPYEKVSAGNGGSSLSYTNPAVAATSANL
notes: Purified recombinant protein; It forms oligomers; also called His-MUC1-CD; His-tagged MUC1-CD; not shown: His tag

The target in data set [1] is B2. In words: BIAcore (SPR), His-MUC1-CD immobilized, peptide injected at 10 uM, 1:1 Langmuir fit. The method, then: (§1) The N-terminal 15 amino acids (shaded sequence) MUC1/CQC and mutated MUC1/AQA peptides were synthesized with the poly-dArg transduction domain. (FIG. 1B) His-MUC1-CD (1.4 mg/ml) was immobilized on a sensor chip in a BIAcore. MUC1/CQC was injected over the chip at 10 μM. Raw binding data were analyzed by BIAevaluation software version 3.0 and fit to a 1:1 Languir binding model. (FIG. 1C) Purified His-MUC1-CD (1.5 mg/ml) was incubated with PBS, 200 μM MUC1/CQC or 200 μM MUC1/AQA for 1 h at room temperature. The proteins were separated in a non-reducing SDS-polyacrylamide gel and analyzed by immunoblotting with anti-MUC1-C. (FIG. 1D) 293 cells were transiently transfected to express an empty vector or GFP-MUC1-CD and Flag-MUC1-CD. At 48 h after transfection, the cells were treated with 5 μM MUC1/CQC or MUC1/AQA for 3 d. The cells were then harvested for immunoblotting with anti-MUC1-C (left panel). Whole cell lysates were also precipitated with anti-Flag and the precipitates were immunoblotted with the indicated antibodies (right panels).
Effects of the MUC1/CQC peptide on MUC1 oligomer formation. The MUC1 cytoplasmic domain (MUC1-CD) contains a CQC motif that is necessary for the formation of oligomers and nuclear localization (Leng et al., 2007). […] Purified His-tagged MUC1-CD forms oligomers as detected by electrophoresis in polyacrylamide gels (FIG. 1C).

Data set [2] concerns the molecule itself. In words: self-association of purified His-MUC1-CD (1.5 mg/ml); non-reducing SDS-polyacrylamide gel, immunoblot with anti-MUC1-C; incubated 1 h with PBS, 200 uM MUC1/CQC or 200 uM MUC1/AQA. The method, then: as §1, with “Schematic representation of the MUC1-C subunit and the 72-amino acid sequence of MUC1-CD are shown. The N-terminal” for “The N-terminal”
(In general: In western blotting, separated proteins are transferred to a membrane and probed.)

Regarding B1, the affinity in data set [1], expressed as Kd, was 30 nM.

Regarding B2, in data set [2], the binding result is “binds”.

For orientation: Kd means the free concentration of one partner at which half of the binding sites on the other are occupied at equilibrium, for simple one-to-one binding. The low end stands for a tighter complex, the high end for a looser complex.
